The record followed here is the Human Domainome abundance scans (Beltran et al. 2025).

± gives the uncertainty stated by the source.

B1: Mineralocorticoid receptor, residues 600 to 675; numbered along this chain, P08235 (parent)
chain: SKICLVCGDEASGCHYGVVTCGSCKVFFKRAVEGQHNYLCAGRNDCIIDKIRRKNCPACRLQKCLQAGMNLGARKS

The data set covers variants of B1. The experiment in a line: abundance fitness (aPCA) (normalised: wild type 0, dead -1); higher = more abundant; growth selection in yeast, the domain comes from the species named. To be noted: Homo sapiens.
Consider SKICLVCGDEASGCHYGRVTCGSCKVFFKRAVEGQHNYLCAGRNDCIIDKIRRKNCPACRLQKCLQAGMNLGARKS [V18R], for which the abundance fitness is -0.078 ± 0.048. Turning to SKICLVCGDEASGCHYGYVTCGSCKVFFKRAVEGQHNYLCAGRNDCIIDKIRRKNCPACRLQKCLQAGMNLGARKS [V18Y], the abundance fitness was -0.284 ± 0.1.

Consider SKICLVCGDEASGCHYGTVTCGSCKVFFKRAVEGQHNYLCAGRNDCIIDKIRRKNCPACRLQKCLQAGMNLGARKS [V18T], for which the abundance fitness is -0.444 ± 0.5.

Take SKICLVCGDEASGCHYGWVTCGSCKVFFKRAVEGQHNYLCAGRNDCIIDKIRRKNCPACRLQKCLQAGMNLGARKS [V18W]: the abundance fitness was -0.457 ± 0.066. Regarding SKICLVCGDEASGCHYGVGTCGSCKVFFKRAVEGQHNYLCAGRNDCIIDKIRRKNCPACRLQKCLQAGMNLGARKS [V19G], the abundance fitness was -0.082 ± 0.035. With SKICLVCGDEASGCHYGVRTCGSCKVFFKRAVEGQHNYLCAGRNDCIIDKIRRKNCPACRLQKCLQAGMNLGARKS [V19R] the figure was -0.019 ± 0.038. With SKICLVCGDEASGCHYGVETCGSCKVFFKRAVEGQHNYLCAGRNDCIIDKIRRKNCPACRLQKCLQAGMNLGARKS [V19E] the figure was 0.032 ± 0.056. Consider SKICLVCGDEASGCHYGVKTCGSCKVFFKRAVEGQHNYLCAGRNDCIIDKIRRKNCPACRLQKCLQAGMNLGARKS [V19K], for which the abundance fitness worked out at 0.007 ± 0.051. Under SKICLVCGDEASGCHYGVYTCGSCKVFFKRAVEGQHNYLCAGRNDCIIDKIRRKNCPACRLQKCLQAGMNLGARKS [V19Y] stands -0.247 ± 0.11; under SKICLVCGDEASGCHYGVCTCGSCKVFFKRAVEGQHNYLCAGRNDCIIDKIRRKNCPACRLQKCLQAGMNLGARKS [V19C], -0.108 ± 0.067; under SKICLVCGDEASGCHYGVPTCGSCKVFFKRAVEGQHNYLCAGRNDCIIDKIRRKNCPACRLQKCLQAGMNLGARKS [V19P], 0.001 ± 0.058.

On to SKICLVCGDEASGCHYGVITCGSCKVFFKRAVEGQHNYLCAGRNDCIIDKIRRKNCPACRLQKCLQAGMNLGARKS [V19I], for which the abundance fitness was -0.086 ± 0.079.

As to SKICLVCGDEASGCHYGVATCGSCKVFFKRAVEGQHNYLCAGRNDCIIDKIRRKNCPACRLQKCLQAGMNLGARKS [V19A], the abundance fitness stood at 0.029 ± 0.048. Under SKICLVCGDEASGCHYGVQTCGSCKVFFKRAVEGQHNYLCAGRNDCIIDKIRRKNCPACRLQKCLQAGMNLGARKS [V19Q] stands -0.02 ± 0.064; under SKICLVCGDEASGCHYGVHTCGSCKVFFKRAVEGQHNYLCAGRNDCIIDKIRRKNCPACRLQKCLQAGMNLGARKS [V19H], -0.091 ± 0.087.

As to SKICLVCGDEASGCHYGVFTCGSCKVFFKRAVEGQHNYLCAGRNDCIIDKIRRKNCPACRLQKCLQAGMNLGARKS [V19F], the abundance fitness was 0.047 ± 0.076.

Regarding SKICLVCGDEASGCHYGVDTCGSCKVFFKRAVEGQHNYLCAGRNDCIIDKIRRKNCPACRLQKCLQAGMNLGARKS [V19D], the abundance fitness was -0.008 ± 0.11. In the case of SKICLVCGDEASGCHYGVMTCGSCKVFFKRAVEGQHNYLCAGRNDCIIDKIRRKNCPACRLQKCLQAGMNLGARKS [V19M], the abundance fitness was 0.115 ± 0.075. With SKICLVCGDEASGCHYGVNTCGSCKVFFKRAVEGQHNYLCAGRNDCIIDKIRRKNCPACRLQKCLQAGMNLGARKS [V19N] the figure was 0.112 ± 0.082. For SKICLVCGDEASGCHYGVSTCGSCKVFFKRAVEGQHNYLCAGRNDCIIDKIRRKNCPACRLQKCLQAGMNLGARKS [V19S], the abundance fitness is 0.038 ± 0.053. Under SKICLVCGDEASGCHYGVTTCGSCKVFFKRAVEGQHNYLCAGRNDCIIDKIRRKNCPACRLQKCLQAGMNLGARKS [V19T] stands -0.113 ± 0.056. Regarding SKICLVCGDEASGCHYGVWTCGSCKVFFKRAVEGQHNYLCAGRNDCIIDKIRRKNCPACRLQKCLQAGMNLGARKS [V19W], the abundance fitness was -0.058 ± 0.05. Consider SKICLVCGDEASGCHYGVVCCGSCKVFFKRAVEGQHNYLCAGRNDCIIDKIRRKNCPACRLQKCLQAGMNLGARKS [T20C], for which the abundance fitness is -0.062 ± 0.1. For the variant SKICLVCGDEASGCHYGVVKCGSCKVFFKRAVEGQHNYLCAGRNDCIIDKIRRKNCPACRLQKCLQAGMNLGARKS [T20K], the abundance fitness was -0.727 ± 0.22. With SKICLVCGDEASGCHYGVVQCGSCKVFFKRAVEGQHNYLCAGRNDCIIDKIRRKNCPACRLQKCLQAGMNLGARKS [T20Q] the figure was -0.244 ± 0.081; with SKICLVCGDEASGCHYGVVECGSCKVFFKRAVEGQHNYLCAGRNDCIIDKIRRKNCPACRLQKCLQAGMNLGARKS [T20E], -0.522 ± 0.1.

On to SKICLVCGDEASGCHYGVVACGSCKVFFKRAVEGQHNYLCAGRNDCIIDKIRRKNCPACRLQKCLQAGMNLGARKS [T20A], for which the abundance fitness is -0.072 ± 0.051. With SKICLVCGDEASGCHYGVVDCGSCKVFFKRAVEGQHNYLCAGRNDCIIDKIRRKNCPACRLQKCLQAGMNLGARKS [T20D] the figure was -0.49 ± 0.24; with SKICLVCGDEASGCHYGVVICGSCKVFFKRAVEGQHNYLCAGRNDCIIDKIRRKNCPACRLQKCLQAGMNLGARKS [T20I], -0.082 ± 0.075. Under SKICLVCGDEASGCHYGVVHCGSCKVFFKRAVEGQHNYLCAGRNDCIIDKIRRKNCPACRLQKCLQAGMNLGARKS [T20H] stands -0.186 ± 0.094; under SKICLVCGDEASGCHYGVVNCGSCKVFFKRAVEGQHNYLCAGRNDCIIDKIRRKNCPACRLQKCLQAGMNLGARKS [T20N], 0.064 ± 0.11; under SKICLVCGDEASGCHYGVVGCGSCKVFFKRAVEGQHNYLCAGRNDCIIDKIRRKNCPACRLQKCLQAGMNLGARKS [T20G], -0.067 ± 0.046. With SKICLVCGDEASGCHYGVVFCGSCKVFFKRAVEGQHNYLCAGRNDCIIDKIRRKNCPACRLQKCLQAGMNLGARKS [T20F] the figure was -0.351 ± 0.25. With SKICLVCGDEASGCHYGVVPCGSCKVFFKRAVEGQHNYLCAGRNDCIIDKIRRKNCPACRLQKCLQAGMNLGARKS [T20P], the abundance fitness was -0.691 ± 0.13.

For the variant SKICLVCGDEASGCHYGVVLCGSCKVFFKRAVEGQHNYLCAGRNDCIIDKIRRKNCPACRLQKCLQAGMNLGARKS [T20L], the abundance fitness was -0.17 ± 0.048. For SKICLVCGDEASGCHYGVVMCGSCKVFFKRAVEGQHNYLCAGRNDCIIDKIRRKNCPACRLQKCLQAGMNLGARKS [T20M], the abundance fitness is -0.194 ± 0.082.
